Source: patent US20060204957A1, “Mta1s, a steriod hormone receptor corepressor” (priority 2002, published 2006)

Molecular target: Estrogen Receptor α (ER) (UniProt P03372)
Test: cell-based or functional assay

Sequence of Estrogen Receptor α (ER) (P03372 whole entry): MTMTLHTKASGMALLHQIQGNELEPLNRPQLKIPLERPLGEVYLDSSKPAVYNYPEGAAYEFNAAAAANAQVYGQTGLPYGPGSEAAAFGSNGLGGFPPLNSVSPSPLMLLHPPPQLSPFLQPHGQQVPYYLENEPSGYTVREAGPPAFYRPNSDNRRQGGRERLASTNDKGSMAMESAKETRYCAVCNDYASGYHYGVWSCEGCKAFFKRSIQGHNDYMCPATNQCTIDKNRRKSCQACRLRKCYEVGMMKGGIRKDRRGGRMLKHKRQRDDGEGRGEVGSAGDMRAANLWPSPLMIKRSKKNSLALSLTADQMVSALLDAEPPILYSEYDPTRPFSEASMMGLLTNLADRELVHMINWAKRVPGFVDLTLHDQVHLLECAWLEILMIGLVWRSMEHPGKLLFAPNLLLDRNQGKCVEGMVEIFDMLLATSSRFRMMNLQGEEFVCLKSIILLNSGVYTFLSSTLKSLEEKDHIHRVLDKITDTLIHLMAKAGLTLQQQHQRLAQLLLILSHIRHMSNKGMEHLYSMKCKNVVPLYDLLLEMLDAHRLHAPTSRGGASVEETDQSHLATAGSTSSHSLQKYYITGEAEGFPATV

presence of ERα in the nucleus of estradiol stimulated MCF-7 cells: > 90%
Substance: MTA1s-del (from UniProt Q13330 1-397)
